T1: MAP2c fully phosphorylated by PKA (rat, UniProt P15146-3 1-467, almost complete phosphorylation at Ser184, Thr220, and Ser435)
T1 construct: microtubule-associated protein 2c (MAP2c), rat, 467 residues, UniProt A6KFC7; 15N,13C-labelled for the HNCO experiments; also called MP‐MAP2c; source: MAP2c expressed and purified as described earlier, incubated overnight with PKA at 27 °C, purified on HiTrap SP
T1 sequence (looked up): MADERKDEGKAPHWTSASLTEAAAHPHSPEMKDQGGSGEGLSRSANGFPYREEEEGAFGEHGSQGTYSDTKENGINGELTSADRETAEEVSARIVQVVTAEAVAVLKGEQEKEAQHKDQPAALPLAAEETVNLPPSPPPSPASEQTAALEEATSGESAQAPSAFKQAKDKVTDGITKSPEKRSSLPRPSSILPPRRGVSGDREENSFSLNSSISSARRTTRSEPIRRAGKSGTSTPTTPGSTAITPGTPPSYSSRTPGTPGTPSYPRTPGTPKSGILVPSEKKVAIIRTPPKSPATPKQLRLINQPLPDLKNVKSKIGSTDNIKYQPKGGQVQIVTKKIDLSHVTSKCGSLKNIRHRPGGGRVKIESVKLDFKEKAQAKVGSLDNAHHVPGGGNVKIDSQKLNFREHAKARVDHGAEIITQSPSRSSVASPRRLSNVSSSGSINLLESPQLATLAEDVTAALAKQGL

T2: monomeric 14‐3‐3ζ‐L12E/M78K/C25A/C189A, P63104
T2 chain: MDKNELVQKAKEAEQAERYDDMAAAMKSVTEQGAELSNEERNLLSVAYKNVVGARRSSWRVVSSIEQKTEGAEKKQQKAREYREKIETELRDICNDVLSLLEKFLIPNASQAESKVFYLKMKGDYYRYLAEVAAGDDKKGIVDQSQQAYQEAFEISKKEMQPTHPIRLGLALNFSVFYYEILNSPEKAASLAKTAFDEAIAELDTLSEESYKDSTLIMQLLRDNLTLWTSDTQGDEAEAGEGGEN

T3: MAP2c phosphorylated selectively by PKA at Ser435 (rat, UniProt P15146-3 1-467, phosphoserine at 435)
T3 construct: microtubule-associated protein 2c (MAP2c), rat, 467 residues, UniProt A6KFC7; 15N,13C-labelled for the HNCO experiments; also called SP‐MAP2c; source: MAP2c expressed and purified as described earlier, incubated with PKA for 1 h at 27 °C, purified on HiTrap SP
T3 sequence (looked up): T1 sequence (looked up)

T4: unphosphorylated MAP2c (microtubule associated protein 2c) (rat, UniProt P15146-3 1-467)
T4 construct: microtubule-associated protein 2c (MAP2c), rat, 467 residues, UniProt A6KFC7; 15N,13C-labelled (M9 medium) for the HNCO experiments; also called UP‐MAP2c
T4 sequence (looked up): T1 sequence (looked up)

B1: monomeric 14‐3‐3ζ‐L12E/M78K/C25A/C189A, P63104 1-245 (natural protein)
chain: T2 chain
B2: phosphopeptide corresponding to residues 432–439 of MAP2c (peptide)
peptide: RRL[pS]NVSS
notes: source: synthetic peptide, ordered from Clonestar
B3: unphosphorylated MAP2c fragment 300–467 (MTBD and CTD) (domain or fragment, rat, UniProt P15146-3 300-467, looked up)
chain: LRLINQPLPDLKNVKSKIGSTDNIKYQPKGGQVQIVTKKIDLSHVTSKCGSLKNIRHRPGGGRVKIESVKLDFKEKAQAKVGSLDNAHHVPGGGNVKIDSQKLNFREHAKARVDHGAEIITQSPSRSSVASPRRLSNVSSSGSINLLESPQLATLAEDVTAALAKQGL
notes: MAP2c, rat, UniProt A6KFC7, residues 300-467, covering MTBD and CTD; also called UP‐(300–467); source: cloned into pET28a (NcoI, BamHI); expressed and purified by the same protocol as MAP2c
B4: MAP2c fragment 300–467 phosphorylated by PKA on Ser435 (domain or fragment, rat, UniProt P15146-3 300-467, looked up)
chain: B3 chain
modifications: phosphoserine at 435
notes: MAP2c, rat, UniProt A6KFC7, residues 300-467, covering MTBD and CTD; also called SP‐(300–467); source: cloned into pET28a; expressed and purified by the same protocol as MAP2c; incubated overnight with PKA at 27 °C
B5: dimeric pseudo wild‐type 14‐3‐3ζ (14‐3‐3ζ C25A/C189A) (natural protein)
chain: SVDMDKNELVQKAKLAEQAERYDDMAAAMKSVTEQGAELSNEERNLLSVAYKNVVGARRSSWRVVSSIEQKTEGAEKKQQMAREYREKIETELRDICNDVLSLLEKFLIPNASQAESKVFYLKMKGDYYRYLAEVAAGDDKKGIVDQSQQAYQEAFEISKKEMQPTHPIRLGLALNFSVFYYEILNSPEKAASLAKTAFDEAIAELDTLSEESYKDSTLIMQLLRDNLTLWTSDTQGDEAEAGEGGEN
notes: additional residues at the N-terminus; 14-3-3ζ, residues 1-245, UniProt P63104; C25A and C189A count on P63104; The results speak of '230 residues examined' in the crystals, the methods of residues 1-245 plus SVD; also called d14‐3‐3ζ; dimeric 14‐3‐3ζ
B6: MAP2c microtubule binding domain fragment, residues 300–399 (domain or fragment, rat, UniProt P15146-3 300-399, looked up)
chain: LRLINQPLPDLKNVKSKIGSTDNIKYQPKGGQVQIVTKKIDLSHVTSKCGSLKNIRHRPGGGRVKIESVKLDFKEKAQAKVGSLDNAHHVPGGGNVKIDS
notes: MAP2c, rat, UniProt A6KFC7, residues 300-399, containing the MTBD; also called UP‐(300–399); MTBD; source: cloned into pET28a (NcoI, BamHI); expressed in M9 medium (15N,13C) and purified by the same protocol as MAP2c
B7: peptide corresponding to residues 333–362 of MAP2c (peptide)
peptide: QIVTKKIDLSHVTSKCGSLKNIRHRPGGGR
notes: as for B2

Series [1] has as its target unphosphorylated MAP2c (microtubule associated protein 2c) (rat) (UniProt P15146). In words: cross-linking; DSBU (200 μM) cross-linking, SDS/PAGE and LC-MS/MS; 20 μM UP-/MP-MAP2c with 80 μM d14-3-3ζ or m14-3-3ζ, or 80 μM d14-3-3ζ with 100 or 400 μM UP-(333-362); PBS, 1 mM TCEP, 37 °C.
Series [2] concerns the target MAP2c phosphorylated selectively by PKA at Ser435 (rat) (UniProt P15146). The series is described as follows: NMR titration; 31P 1D NMR; 60 μM SP-MAP2c or MP-MAP2c with 12.5-300 μM d14-3-3ζ or 12.5-200 μM m14-3-3ζ; chemical shift changes fitted; apparent KD.
Series [3] shares this target. The series is described as follows: ITC; 14-3-3ζ (d: 2.9-3 mM; m: 1.5 mM) injected into the cell with 90 μM MAP2c or 220 μM fragment 300-467; 27 °C; 50 mM MOPS, 100 mM NaCl, 4 mM β-mercaptoethanol; one set of sites; apparent KD.
Series [4] concerns the target T1, MAP2c fully phosphorylated by PKA. Described as above.
Series [5] has the same target. In words: cross-linking; DSBU (200 μM) cross-linking, SDS/PAGE and LC-MS/MS; 20 μM UP-/MP-MAP2c with 80 μM d14-3-3ζ or m14-3-3ζ, or 80 μM d14-3-3ζ with 100 or 400 μM UP-(333-362); PBS, 1 mM TCEP, 37 °C.
The target of series [6] is T2, monomeric 14‐3‐3ζ‐L12E/M78K/C25A/C189A, …. The series is described as follows: ITC; free m14-3-3ζ titrated into ITC buffer; heat of dissociation; dimer to monomers. The following applies: remark: other sources report otherwise.
Series [7] shares this target. The series is described as follows: native gel or EMSA; native PAGE; 100 μM d14-3-3ζ or m14-3-3ζ with 0-400 μM MP-MAP2c, 15 min at room temperature; 10% gel, 25 mM Tris, 192 mM glycine, 4 °C. The following applies: remark: other sources report otherwise.
The target of series [8] is B5. The series is described as follows: ITC; 3 mM d14-3-3ζ injected into 160 μM SP-(432-439) or 150 μM UP-(333-362); 27 °C; 50 mM MOPS, 100 mM NaCl, 4 mM β-mercaptoethanol; n set to one in the fit. Particulars: both partners purified.
Series [9] deals with B5. In words: ITC; 14-3-3ζ (d: 2.9-3 mM; m: 1.5 mM) injected into the cell with 90 μM MAP2c or 220 μM fragment 300-467; 27 °C; 50 mM MOPS, 100 mM NaCl, 4 mM β-mercaptoethanol; one set of sites; apparent KD. Particulars: both partners purified.
Series [10] addresses T3, MAP2c phosphorylated selectively by PKA …. The series is described as follows: NMR titration; 31P 1D NMR; 60 μM SP-MAP2c or MP-MAP2c with 12.5-300 μM d14-3-3ζ or 12.5-200 μM m14-3-3ζ; chemical shift changes fitted; apparent KD. The following applies: both partners purified.
Series [11] addresses T4, unphosphorylated MAP2c (microtubule …). In words: ITC; 14-3-3ζ (d: 2.9-3 mM; m: 1.5 mM) injected into the cell with 90 μM MAP2c or 220 μM fragment 300-467; 27 °C; 50 mM MOPS, 100 mM NaCl, 4 mM β-mercaptoethanol; one set of sites; apparent KD. Particulars: both partners purified.
The target of series [12] is T3, MAP2c phosphorylated selectively by PKA …. The description is as above. Particulars: both partners purified.
Series [13] has as its target T4, unphosphorylated MAP2c (microtubule …). The series is described as follows: cross-linking; DSBU (200 μM) cross-linking, SDS/PAGE and LC-MS/MS; 20 μM UP-/MP-MAP2c with 80 μM d14-3-3ζ or m14-3-3ζ, or 80 μM d14-3-3ζ with 100 or 400 μM UP-(333-362); PBS, 1 mM TCEP, 37 °C. The following applies: both partners purified.
Series [14] concerns the molecule itself. The description is as above.
For series [15], the target named is B5. The series is described as follows: NMR titration; 3D HNCO peak broadening; 350 μM 15N,13C-UP-(300-399) with 350 μM d14-3-3ζ; 27 °C; NMR buffer. The following applies: both partners purified.

Eight molecules from article PMC12001206, “Characterization of multiple binding sites on microtubule associated protein 2c recognized by dimeric and monomeric 14‐3‐3ζ” (The Febs Journal, 2025) can be followed below.

“And” between values parts separate entries of the source, which are not always exact repeats. Identical values can stand only once. Like-named read-outs stand apart in the source and are kept apart here. Square brackets hold non-standard residues; d marks the D form. Ends that are not written are not given here. pS = N[C@@H](COP(=O)(O)O)C(=O)O

With “monomeric 14‐3‐3ζ‐L12E/M78K/C25A/C189A (from UniProt P63104 1-245) (natural protein)”, the stoichiometry N in series [1] was 2; in series [3] it was 1.51; in series [4], 1.31; in series [5], 2. Also, the Kd turned out to be 133 µM in series [2], 102 µM in series [3] and 17 µM in series [4]. Further, the dH is 2.49 kcal/mol in [3] and 0.765 kcal/mol in series [4].

Regarding B1, in [6], the Kd was determined as 600 µM. The molecule further yielded a percent present as a dimer at 100 μM in series [7] of 20%.

On to B2, for which the Kd in [8] is 3200 ± 400 µM.

As to B3, in series [9], the Kd turned out to be 56 ± 8 µM.

B4: in [9], the Kd worked out at 24 ± 6 µM.

As to B5, the Kd is 7.3 µM and < 15 µM in [10]; 58 ± 6 µM in [11]; 74 ± 21 µM in series [12]; 21 ± 3 µM in [4] (both partners purified). The “stoichiometry N” value in series [10] worked out at 2.73 ± 0.2; in series [11] it was 1.93 ± 0.03; in [12] it was 2.68 ± 0.12; in series [4] (both partners purified), 1.99 ± 0.04; in series [13], 2; in series [5] (both partners purified) it was 2. Moreover, the dH in series [11] was determined as 2.72 ± 0.12 kcal/mol; in series [12], 2.08 ± 0.239 kcal/mol; in series [4] (both partners purified) it was 1.34 ± 0.0478 kcal/mol. Moreover, the binding result in [14] is recorded as “binds”.

For B6, in series [15], the binding result is “binds”.

Take B7: the Kd in [8] was determined as 1800 ± 100 µM.
